Source: patent US11911450B2, “Method for managing pain” (UNIVERSITY OF MIAMI, priority 2017, dated 2024)
“Also recorded” adds a separate entry of the source.

B1: Car10: carbonic anhydrase 10, rodent ortholog, overexpressed (V5-tagged) protein (protein)
chain: MEIVWEVLFLLQANFIVCISAQQNSPKIHEGWWAYKEVVQGSFVPVPSFWGLVNSAWNLCSVGKRQSPVNIETSHMIFDPFLTPLRINTGGRKVSGTMYNTGRHVSLRLDKEHLVNISGGPMTYSHRLEEIRLHFGSEDSQGSEHLLNGQAFSGEVQLIHYNHELYTNVTEAAKSPNGLVVVSIFIKVSDSSNPFLNRMLNRDTITRITYKNDAYLLQGLNIEELYPETSSFITYDGSMTIPPCYETASWIIMNKPVYITRMQMHSLRLLSQNQPSQIFLSMSDNFRPVQPLNNRCIRTNINFSLQGKDCPNNRAQKLQYRVNEWLLK
modifications: left off: small tags and cut ends
notes: carbonic anhydrase 10, rodent ortholog, overexpressed (V5-tagged) protein
B2: CA10: human carbonic anhydrase 10, overexpressed (V5-tagged) protein; SEQ ID NO: 9 (protein)
chain: B1 chain
modifications: V5 tag

What was measured:
[1] = target: T1, RYR1 (Homo sapiens, UniProt P21817); assay: immunoprecipitation (anti-RYR1) and western blot (anti-V5) in NBL cells; format: binding; conditions: 48 h after transfection
T1 construct: NBL cells were transfected with AAV-V5-CA10 and AAV-V5-Car10 using Lipofectamin (LTX); endogenous in cells; host or cells: NBL cells transfected with V5-CA10 / V5-Car10 only
T1 sequence (P21817 whole entry): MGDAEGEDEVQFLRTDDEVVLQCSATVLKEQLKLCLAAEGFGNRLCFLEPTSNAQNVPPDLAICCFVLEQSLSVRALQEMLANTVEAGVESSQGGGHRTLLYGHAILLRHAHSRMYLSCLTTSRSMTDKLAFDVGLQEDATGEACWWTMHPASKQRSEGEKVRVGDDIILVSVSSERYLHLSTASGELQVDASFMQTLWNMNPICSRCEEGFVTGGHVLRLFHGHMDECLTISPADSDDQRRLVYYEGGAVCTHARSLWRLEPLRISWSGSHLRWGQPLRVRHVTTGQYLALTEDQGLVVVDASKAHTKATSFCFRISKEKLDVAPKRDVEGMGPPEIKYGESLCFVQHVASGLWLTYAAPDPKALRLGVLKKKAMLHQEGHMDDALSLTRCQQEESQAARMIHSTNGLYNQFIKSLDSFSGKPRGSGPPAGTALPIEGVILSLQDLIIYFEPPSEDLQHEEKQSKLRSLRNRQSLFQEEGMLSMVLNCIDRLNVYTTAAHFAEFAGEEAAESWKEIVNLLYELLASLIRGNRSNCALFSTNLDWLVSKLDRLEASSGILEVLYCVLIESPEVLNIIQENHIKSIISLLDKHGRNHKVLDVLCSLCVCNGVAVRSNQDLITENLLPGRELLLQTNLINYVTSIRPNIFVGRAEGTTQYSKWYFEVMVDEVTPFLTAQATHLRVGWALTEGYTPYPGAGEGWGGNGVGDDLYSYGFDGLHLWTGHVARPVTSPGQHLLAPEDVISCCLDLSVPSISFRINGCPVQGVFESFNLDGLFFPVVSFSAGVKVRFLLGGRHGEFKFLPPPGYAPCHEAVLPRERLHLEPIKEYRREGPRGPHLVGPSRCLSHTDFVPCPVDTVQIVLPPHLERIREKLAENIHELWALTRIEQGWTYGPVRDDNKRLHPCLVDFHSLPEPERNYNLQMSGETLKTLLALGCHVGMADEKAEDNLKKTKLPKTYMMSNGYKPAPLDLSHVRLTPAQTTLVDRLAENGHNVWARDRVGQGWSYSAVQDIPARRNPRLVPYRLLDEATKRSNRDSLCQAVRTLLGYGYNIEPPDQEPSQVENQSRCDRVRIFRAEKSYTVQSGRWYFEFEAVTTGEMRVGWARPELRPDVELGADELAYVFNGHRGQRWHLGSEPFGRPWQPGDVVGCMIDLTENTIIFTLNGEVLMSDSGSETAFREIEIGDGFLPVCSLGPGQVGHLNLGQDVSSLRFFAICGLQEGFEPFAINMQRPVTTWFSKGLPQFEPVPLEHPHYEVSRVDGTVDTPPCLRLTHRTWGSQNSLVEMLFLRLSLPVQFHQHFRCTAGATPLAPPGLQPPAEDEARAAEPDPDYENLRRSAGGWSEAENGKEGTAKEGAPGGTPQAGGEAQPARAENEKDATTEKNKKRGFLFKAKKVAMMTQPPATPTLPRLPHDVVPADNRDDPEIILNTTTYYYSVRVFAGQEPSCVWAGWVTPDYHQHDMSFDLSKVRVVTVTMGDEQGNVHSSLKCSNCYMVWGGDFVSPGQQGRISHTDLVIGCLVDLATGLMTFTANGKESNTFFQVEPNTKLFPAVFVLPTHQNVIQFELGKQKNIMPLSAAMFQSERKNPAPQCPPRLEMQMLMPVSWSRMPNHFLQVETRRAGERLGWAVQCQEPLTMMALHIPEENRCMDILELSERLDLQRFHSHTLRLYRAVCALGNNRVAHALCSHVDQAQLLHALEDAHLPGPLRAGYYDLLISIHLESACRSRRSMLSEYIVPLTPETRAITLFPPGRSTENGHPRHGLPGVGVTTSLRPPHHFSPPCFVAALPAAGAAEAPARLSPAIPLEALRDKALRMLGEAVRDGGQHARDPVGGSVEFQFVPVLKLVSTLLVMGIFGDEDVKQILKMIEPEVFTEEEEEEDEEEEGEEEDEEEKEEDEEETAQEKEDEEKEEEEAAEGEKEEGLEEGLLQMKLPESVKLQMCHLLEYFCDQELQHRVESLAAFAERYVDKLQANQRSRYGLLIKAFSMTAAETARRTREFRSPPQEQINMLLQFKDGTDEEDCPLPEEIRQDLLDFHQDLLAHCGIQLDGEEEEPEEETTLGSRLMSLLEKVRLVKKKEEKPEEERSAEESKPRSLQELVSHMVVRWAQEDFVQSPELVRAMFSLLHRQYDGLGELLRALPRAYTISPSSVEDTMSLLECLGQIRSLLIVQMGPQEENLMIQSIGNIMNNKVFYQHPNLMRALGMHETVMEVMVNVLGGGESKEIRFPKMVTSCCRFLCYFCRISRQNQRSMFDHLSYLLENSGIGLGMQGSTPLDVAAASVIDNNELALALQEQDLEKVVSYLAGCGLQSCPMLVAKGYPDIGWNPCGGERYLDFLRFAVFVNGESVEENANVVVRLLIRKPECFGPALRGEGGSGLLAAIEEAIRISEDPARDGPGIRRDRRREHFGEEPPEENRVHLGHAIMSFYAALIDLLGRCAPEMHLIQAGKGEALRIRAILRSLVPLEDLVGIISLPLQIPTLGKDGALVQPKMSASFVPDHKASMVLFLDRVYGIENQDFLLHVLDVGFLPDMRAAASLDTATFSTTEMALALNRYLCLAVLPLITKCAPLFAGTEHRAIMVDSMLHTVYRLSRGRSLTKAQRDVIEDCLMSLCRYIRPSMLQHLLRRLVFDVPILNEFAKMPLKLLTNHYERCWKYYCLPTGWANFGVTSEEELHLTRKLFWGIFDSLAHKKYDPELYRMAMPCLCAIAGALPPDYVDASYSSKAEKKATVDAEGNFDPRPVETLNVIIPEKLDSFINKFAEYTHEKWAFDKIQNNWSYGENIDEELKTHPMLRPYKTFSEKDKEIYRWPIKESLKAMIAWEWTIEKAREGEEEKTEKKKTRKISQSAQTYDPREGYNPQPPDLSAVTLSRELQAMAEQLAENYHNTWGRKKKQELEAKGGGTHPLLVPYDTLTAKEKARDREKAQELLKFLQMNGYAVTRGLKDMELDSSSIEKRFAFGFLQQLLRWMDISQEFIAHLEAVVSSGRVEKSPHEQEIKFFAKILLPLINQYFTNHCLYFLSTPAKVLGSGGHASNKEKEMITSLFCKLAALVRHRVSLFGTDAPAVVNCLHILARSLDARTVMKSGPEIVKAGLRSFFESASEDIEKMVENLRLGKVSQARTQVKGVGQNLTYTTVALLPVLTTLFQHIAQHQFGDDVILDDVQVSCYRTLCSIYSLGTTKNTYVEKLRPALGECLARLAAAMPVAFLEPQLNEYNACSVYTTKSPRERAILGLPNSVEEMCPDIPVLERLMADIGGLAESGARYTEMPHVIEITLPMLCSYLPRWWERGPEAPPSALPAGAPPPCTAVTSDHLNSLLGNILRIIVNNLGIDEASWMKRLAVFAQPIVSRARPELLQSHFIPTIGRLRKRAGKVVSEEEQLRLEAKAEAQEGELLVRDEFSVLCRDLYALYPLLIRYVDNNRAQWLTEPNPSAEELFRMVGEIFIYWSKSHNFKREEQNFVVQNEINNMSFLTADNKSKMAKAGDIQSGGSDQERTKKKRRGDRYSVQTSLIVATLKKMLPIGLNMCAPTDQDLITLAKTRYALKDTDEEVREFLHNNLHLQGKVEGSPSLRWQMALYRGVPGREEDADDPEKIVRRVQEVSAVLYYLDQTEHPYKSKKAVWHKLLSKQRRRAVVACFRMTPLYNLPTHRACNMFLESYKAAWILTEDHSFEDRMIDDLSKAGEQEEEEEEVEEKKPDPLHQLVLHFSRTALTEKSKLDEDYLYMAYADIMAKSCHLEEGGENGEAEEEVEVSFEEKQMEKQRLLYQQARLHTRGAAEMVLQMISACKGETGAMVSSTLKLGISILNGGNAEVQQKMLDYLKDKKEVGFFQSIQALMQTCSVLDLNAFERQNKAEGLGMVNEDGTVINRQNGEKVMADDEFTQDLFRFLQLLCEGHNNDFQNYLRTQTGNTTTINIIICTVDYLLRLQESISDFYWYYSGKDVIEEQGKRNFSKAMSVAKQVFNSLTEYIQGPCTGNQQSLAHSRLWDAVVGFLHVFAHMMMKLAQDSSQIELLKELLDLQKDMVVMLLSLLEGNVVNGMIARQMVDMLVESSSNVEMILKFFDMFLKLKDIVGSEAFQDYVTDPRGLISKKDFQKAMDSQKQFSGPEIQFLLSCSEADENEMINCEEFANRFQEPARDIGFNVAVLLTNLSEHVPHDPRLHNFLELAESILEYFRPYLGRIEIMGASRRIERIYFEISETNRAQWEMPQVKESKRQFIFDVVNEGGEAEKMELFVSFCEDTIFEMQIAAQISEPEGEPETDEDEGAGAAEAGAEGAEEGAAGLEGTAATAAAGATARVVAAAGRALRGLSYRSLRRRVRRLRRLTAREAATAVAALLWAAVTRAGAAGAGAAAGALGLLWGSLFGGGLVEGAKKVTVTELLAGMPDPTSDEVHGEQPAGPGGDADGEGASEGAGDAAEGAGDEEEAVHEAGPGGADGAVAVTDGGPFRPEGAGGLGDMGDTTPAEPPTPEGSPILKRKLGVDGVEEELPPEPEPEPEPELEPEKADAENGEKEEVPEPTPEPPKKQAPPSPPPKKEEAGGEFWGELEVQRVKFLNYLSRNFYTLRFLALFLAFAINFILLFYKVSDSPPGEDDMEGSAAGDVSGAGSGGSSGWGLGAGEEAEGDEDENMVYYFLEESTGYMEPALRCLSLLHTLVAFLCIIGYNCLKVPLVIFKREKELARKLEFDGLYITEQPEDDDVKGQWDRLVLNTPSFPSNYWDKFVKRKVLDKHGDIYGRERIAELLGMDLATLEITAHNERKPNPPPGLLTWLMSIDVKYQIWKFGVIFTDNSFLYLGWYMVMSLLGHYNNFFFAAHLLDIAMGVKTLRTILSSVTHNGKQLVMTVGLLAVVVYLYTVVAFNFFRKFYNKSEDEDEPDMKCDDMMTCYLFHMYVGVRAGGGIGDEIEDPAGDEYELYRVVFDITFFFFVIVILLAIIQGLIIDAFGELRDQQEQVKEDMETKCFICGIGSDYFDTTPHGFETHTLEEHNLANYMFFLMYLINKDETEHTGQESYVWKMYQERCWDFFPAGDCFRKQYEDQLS
Procedure: NBL cells were transfected with AAV-V5-CA10 and AAV-V5-Car10 using Lipofectamin (LTX). Cellular protein was extracted 48 h after transfection.
Immunoprecipitation (IP) and western blotting (WB) was utilized to detect binding. Rabbit anti-RYR1 was used for IP and chicken anti-V5 was used for WB analyses. About 1/10 of the IP protein was used for WB to show the V5 labeled CA10 or Car10 by WB. B-actin was used as a loading control. See FIG. 33, which establishes co-immunoprecipitation of CA10 and RYR.

[2] = tested on: ITPR1 phosphorylation (pITPR1) at Ser-1755; assay: forskolin-induced ITPR1 phosphorylation (pITPR1) in transfected HEK293 cells; format: cell-based, human; conditions: 1 μM forskolin; for forskolin-induced ITPR1 phosphorylation (pITPR1), western blot: overexpression vs empty vector; for pITPR1 by IHC in response to forskolin: vs empty vector (AAV-null)
Procedure: Cell culture and transfections: Human neuronal-derived (e.g., NBL), human non-neuronal derived (e.g., HEK293) cells, or dispersed rodent primary DRG cells can be used. HEK293 cells (cat #CRL-1573 ATCC Manassas, VA) were cultured in Dulbecco's modified Eagle's medium (DMEM-Glutamax cat #0566; Invitrogen) supplemented with 10% fetal bovine serum, FBS (cat #16140 ThermoFisher scientific, Waltham, MA) and 1% penicillin/streptomycin (cat #15140 ThermoFisher scientific, Waltham, MA). Cells were seeded in six-well plates at density of 1.0×10^5 cells per well. The following day, cells were transfected with plasmids via lipofectamine LTX reagent and plus (cat #15338 ThermoFisher scientific, Waltham, MA). For each transfection 2 μg of AAV2-ITR (control), AAV2-V5-Car10, or AAV2-V5-CA10 vectors was used. In various embodiments of the disclosure described herein, 2 μg of expression vectors (including positive and negative controls) in instances when AAV2 is not the viral vector employed.
Immunohistochemistry (IHC): HEK293 cells were seeded in poly-L-Lysine/laminin coated glass coverslips at a density of per coverslip, 24 hrs later cells were transfected with Car10, CA10 or empty vector respectively. Cells were cultured at 37° C. for an additional 96 hrs, then treated with forskolin 1 μM (F6886 Sigma, St. Louis, MO) for 5 min, then fixed with 4% paraformaldehyde for 15 min, permeabilized with 0.1% Triton X-100 for 10 min, and blocked with 1% bovine serum albumin (BSA, sigma) for 1 h. Cells were then incubated with anti-pITPR1 (cat #8548s cell signaling technology), anti-Car10 (cat #SAB1102286 Sigma, St Louis, MO), anti-V5 (cat #R960 Invitrogen), anti-ITPR1 (cat #8568 Cell Signaling technology) antibody overnight at 4° C. The next day, cells were incubated with the corresponding second antibody (1:200) for 1 h at room temperature in the dark. Coverslips were dried and affixed to slides using a fluorescent mounting medium containing Dapi (cat #P36931 Life Technologies). It will be understood that IHC methods also are contemplated using anti-Car8, anti-CA8, anti-CA8 fragment (CA8-204), anti-CA10, anti-Car11 and anti-CA11 antibodies.
HEK293 cells were transfected using AAV8-V5 vectors overexpressing Car10 and CA10, an empty vector and vehicle served as controls. A V5 sequence was inserted at the Car10 or CA10 C-terminal region in order to differentiate between exogenous and endogenous CA10/Car10 expression. […] Using the V5 tag, protein overexpression was detected following V5-Car10 and V5-CA10 vector transfection (FIG. 1B).
In order to examine the role of CA10 in the regulation of ITPR1 phosphorylation (pITPR1) that enhances the response of ITPR1 to the IP3 ligand, HEK293 cells were transfected with AAV8-V5-CA10 vectors. […]

[3] = tested on: neuropathic (Chung) mouse pain model; assay: neuropathic (Chung, spinal nerve ligation) mouse pain model, mechanical withdrawal threshold (von Frey); format: in vivo, C57BL/6J mice; conditions: sciatic nerve injection; spinal nerve ligation on Day 19
Procedure: Sciatic nerve injection of expression vectors (adeno-associated AAV8-V5-Car10 and AAV8-V5-CA10 vectors): Mice were anesthetized by intraperitoneal injection of Ketamine, xylazine and acepromazine cocktail (VEDCO, Saint Joseph, MO). Following sciatic nerve exposure, about 1.5 μl viral particles of AAV8-null (1.36E^13 viral particles, SL100832 SignaGen Laboratories Rockville, MD), AAV8-V5-Car10 and AAV8-V5-CA10 (1.06E^14 viral particles and 1.66E^14 viral particles, respectively) were injected into the sciatic nerve using a 35-gauge Nanofil needle (World Precision Instruments, Sarasota, FL). The sciatic injection site was approximately 45 mm from the tip of the third toe.
Neuropathic pain model: For the induction of peripheral neuropathy, mice were first anesthetized by an intraperitoneal injection of ketamine, xylazine hydrochloride and acepromazine (VEDCO, Saint Joseph, MO). […]
Behavioral tests: Thermal and mechanical sensitivity was measured by Hargreaves test and von Frey filament threshold calculations respectively. […] The mouse hind paw was pressed with one of a series of von Frey filaments with logarithmically incrementing stiffness (Stoelting Co, Wood Dale, IL) presented perpendicular to the plantar surface of each hind paw for 1-2 seconds, the 50% threshold was determined using the Up- and Down method.

Row | Molecule | binding to RYR1 (co-immunoprecipitation) [1] | forskolin-induced ITPR1 phosphorylation (pITPR1), western blot [2] | pITPR1 by IHC in response to forskolin [2] | mechanical withdrawal threshold [3]
1 | B1 | binds | reduced forskolin-induced ITPR1 phosphorylation; also recorded: inhibited forskolin-induced pITPR1 | no increase in pITPR1 | prevents mechanical hyperalgesia
2 | B2 | co-immunoprecipitation; also recorded: binds | reduced forskolin-induced ITPR1 phosphorylation; also recorded: inhibited forskolin-induced pITPR1 | no increase in pITPR1 | prevents mechanical hyperalgesia
